Assay results as given in patent publication US20250270274A1 (SERPENTIDE, published 2025).
Where two headings read alike, the source gives them in different places. Where no end group is shown, it is not given here.

T1: human GIP receptor (human, UniProt P48546 22-466)
T1 sequence (looked up): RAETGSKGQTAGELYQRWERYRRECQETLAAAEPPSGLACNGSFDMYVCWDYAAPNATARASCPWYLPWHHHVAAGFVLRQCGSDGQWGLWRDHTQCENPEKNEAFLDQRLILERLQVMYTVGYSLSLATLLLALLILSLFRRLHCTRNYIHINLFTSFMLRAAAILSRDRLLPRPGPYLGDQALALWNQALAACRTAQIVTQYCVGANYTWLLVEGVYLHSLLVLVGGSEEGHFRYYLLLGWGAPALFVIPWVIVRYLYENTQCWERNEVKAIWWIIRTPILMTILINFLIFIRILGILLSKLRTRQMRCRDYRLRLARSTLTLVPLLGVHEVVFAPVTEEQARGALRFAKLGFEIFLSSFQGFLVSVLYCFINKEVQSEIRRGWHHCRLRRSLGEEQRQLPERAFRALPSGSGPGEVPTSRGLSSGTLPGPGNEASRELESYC

T2: mouse GIP receptor (mouse, UniProt Q0P543 19-460)
T2 sequence (looked up): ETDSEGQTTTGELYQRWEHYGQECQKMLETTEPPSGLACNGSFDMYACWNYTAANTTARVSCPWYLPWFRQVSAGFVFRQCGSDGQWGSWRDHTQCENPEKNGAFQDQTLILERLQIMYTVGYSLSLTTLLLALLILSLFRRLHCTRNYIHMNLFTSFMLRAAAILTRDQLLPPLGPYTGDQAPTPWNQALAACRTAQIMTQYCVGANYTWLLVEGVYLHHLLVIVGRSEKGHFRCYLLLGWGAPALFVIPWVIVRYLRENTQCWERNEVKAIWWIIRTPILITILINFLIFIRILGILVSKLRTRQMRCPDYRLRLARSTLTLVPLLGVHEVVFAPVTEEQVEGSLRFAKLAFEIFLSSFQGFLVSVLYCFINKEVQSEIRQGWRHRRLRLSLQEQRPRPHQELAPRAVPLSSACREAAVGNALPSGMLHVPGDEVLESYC


Assays:
Experiment in all cases: cell-based or functional assay
[1] = biological target: T1, human GIP receptor
[2] = biological target: T3, human GLP1 receptor (human, UniProt P43220 24-463)
[3] = biological target: T2, mouse GIP receptor
[4] = biological target: T3, human GLP1 receptor; remark: listed apart in the source
[5] = biological target: T1, human GIP receptor; remark: listed apart in the source

Row | Binder | EC50, HTRF cAMP bioassay [1] [nM] | EC50, HTRF cAMP bioassay [2] [nM] | IC50, HTRF cAMP bioassay [3] [nM] | EC50, HTRF cAMP bioassay [4] [nM] | EC50, HTRF cAMP bioassay [3] [nM] | EC50, HTRF cAMP bioassay [5] [nM]
1 | YGEGTFTSDYSIYLDKIAQKAFVQWLIAGGPSSGAPPPS (ends and bridges not checked) [SP02: GLP1/GIP receptor co-agonist analogue] | 3.69 | – | – | – | – | –
2 | YGEGTFTSDYSIQLDKIAQKAFVQWLIAGGPSSGAPPPS (ends and bridges not checked) [SP03: GLP1/GIP receptor co-agonist analogue] | 22 | 0.225 | – | – | – | –
3 | P46: SP01-amG3 (antibody, human IgG4 S228P, kappa, F234A L235A) light: HGEGTFTSDVSSYLEEQAAKEFIAWLVKGGGGGGGSGGGGSGGGGSDVVMTQTPLSLPVSLGDQASISCRSSQSLVHSNGDTYLHWYLQKPGQSPKLLIYKVSNRFSGVPDRFSGSGSGTDFTLKISRVEAADLGVYFCSQSTHVPPFTFGGGTKLEIKRTVAAPSVFIFPPSDEQLKSGTASVVCLLNNFYPREAKVQWKVDNALQSGNSQESVTEQDSKDSTYSLSSTLTLSKADYEKHKVYACEVTHQGLSSPVTKSFNRGEC heavy: not shown | – | – | 11.2 | 0.034 | – | –
4 | P26: SP02-bispecific antibodies for GLP1R and GIPR (bispecific antibody, human IgG1, kappa) chain 1: YGEGTFTSDYSIYLDKIAQKAFVQWLIAGGPSSGAPPPSGGGGSGGGGSGGGGSDIVMTQSPSSLTVTAGEKVTMSCKSSQSLLNSGNQKNYLTWYQQKPGQPPKLLISWASTRDSGVPDRFTGSGSGTDFTLTISSVQAEDLAVYYCQNDYSYPLTFGAGTKLELKRTVAAPSVFIFPPSDEQLKSGTASVVCLLNNFYPREAKVQWKVDNALQSGNSQESVTEQDSKDSTYSLSSTLTLSKADYEKHKVYACEVTHQGLSSPVTKSFNRGEC chain 2: YGEGTFTSDYSIYLDKIAQKAFVQWLIAGGPSSGAPPPSGGGGSGGGGSGGGGSQIVLTQSPAIMSASPGEKVTMTCSASSRVTYMHWYQQRSGTSPKRWIYDTSKLASGVPARFSGSGSGTSYSLTISSMEAEDAATYYCQQWGNNPQYTFGGGTRLEIKRTVAAPSVFIFPPSDEQLKSGTASVVCLLNNFYPREAKVQWKVDNALQSGNSQESVTEQDSKDSTYSLSSTLTLSKADYEKHKVYACEVTHQGLSSPVTKSFNRGEC chain 3: not shown chain 4: not shown | – | – | – | 0.12 | 0.35 | 48
5 | P28: SP02-amG2 (antibody, human IgG4 S228P, kappa, F234A L235A) light: YGEGTFTSDYSIYLDKIAQKAFVQWLIAGGPSSGAPPPSGGGGSGGGGSGGGGSDIVMTQSPSSLTVTAGEKVTMSCKSSQSLLNSGNQKNYLTWYQQKPGQPPKLLISWASTRDSGVPDRFTGSGSGTDFTLTISSVQAEDLAVYYCQNDYSYPLTFGAGTKLELKRTVAAPSVFIFPPSDEQLKSGTASVVCLLNNFYPREAKVQWKVDNALQSGNSQESVTEQDSKDSTYSLSSTLTLSKADYEKHKVYACEVTHQGLSSPVTKSFNRGEC heavy: not shown | – | – | – | 1.25 | 0.42 | 69
